Residue numbers refer to the chain shown, from its start. Where two headings read alike, the source gives them in different places.
Columns and labels:
[1] = target: 3RJT protein Asn183Ala mutant (Alicyclobacillus acidocaldarius subsp. Acidocaldarius DSM446); assay: SEC
Cph, Axe2 homologue [2] = assay: SEC
Cph, Axe2 homologue [3] = assay: dynamic light scattering
Pal, Axe2 homologue [4] = assay: SEC
Pal, Axe2 homologue [5] = assay: dynamic light scattering
Pda, Axe2 homologue [6] = assay: SEC
Pda, Axe2 homologue [7] = assay: dynamic light scattering
Pjd, Axe2 homologue [8] = assay: SEC
Pjd, Axe2 homologue [9] = assay: dynamic light scattering
Sku, Axe2 homologue [10] = assay: SEC
Sku, Axe2 homologue [11] = assay: dynamic light scattering
SEC [12] = target: the molecule itself; assay: SEC
SEC [13] = target: the molecule itself; assay: SEC; remark: listed apart in the source
SEC [14] = target: the molecule itself; assay: SEC; remark: listed apart in the source

3RJT protein Asn183Ala mutant (enzyme) gave a stoichiometry N [1] of 2.

With Cph, Axe2 homologue (enzyme) the stoichiometry N (Cph, Axe2 homologue [2]) was 8 and the stoichiometry N (Cph, Axe2 homologue [3]) was 8.

Work on Pal, Axe2 homologue (enzyme) yielded a stoichiometry N (Pal, Axe2 homologue [4]) of 8 and a stoichiometry N (Pal, Axe2 homologue [5]) of 8.

Pda, Axe2 homologue (enzyme) showed a stoichiometry N (Pda, Axe2 homologue [6]) of 8 and a stoichiometry N (Pda, Axe2 homologue [7]) of 8.

Work on Pjd, Axe2 homologue (enzyme) yielded a stoichiometry N (Pjd, Axe2 homologue [8]) of 8 and a stoichiometry N (Pjd, Axe2 homologue [9]) of 8.

With Sku, Axe2 homologue (enzyme) the stoichiometry N (Sku, Axe2 homologue [10]) was 8 and the stoichiometry N (Sku, Axe2 homologue [11]) was 8.

B1: Axe2 acetyl-xylo-oligosaccharide esterase from Geobacillus stearothermophilus, wild type (enzyme)
chain: MKIGSGEKLLFIGDSITDCGRARPEGEGSFGALGTGYVAYVVGLLQAVYPELGIRVVNKGISGNTVRDLKARWEEDVIAQKPDWVSIMIGINDVWRQYDLPFMKEKHVYLDEYEATLRSLVLETKPLVKGIILMTPFYIEGNEQDPMRRTMDQYGRVVKQIAEETNSLFVDTQAAFNEVLKTLYPAALAWDRVHPSVAGHMILARAFLREIGFEWVRSR
In the case of B1, the “stoichiometry N” value (SEC [12]) is reported as 8.

B2: Axe2 triple mutant Tyr184Phe-Arg205Ala-Trp215Ala (enzyme)
chain: B1 chain with Y184F, R205A, W215A
For B2, the “stoichiometry N” value (SEC [12]) was 2.

B3: Axe2 Arg55Ala mutant (enzyme)
chain: B1 chain with R55A
For B3, the “stoichiometry N” value (SEC [13]) was 8.

B4: Axe2 Arg55Glu mutant (enzyme)
chain: B1 chain with R55E
B4 was tested, and the “stoichiometry N” value (SEC [13]) was 8 and the “stoichiometry N” value (SEC [14]) was 2.

B5: Axe2 Trp190Ile mutant (enzyme)
chain: B1 chain with W190I
In the case of B5, the “stoichiometry N” value (SEC [12]) is reported as 8.

B6: Axe2 Tyr184Phe mutant (enzyme)
chain: B1 chain with Y184F
For B6, the “stoichiometry N” value (SEC [12]) was 2.

B7: Axe2 Arg192Lys mutant (enzyme)
chain: B1 chain with R192K
For B7, the “stoichiometry N” value (SEC [12]) was 2.
